From PMC8632080

How the values were obtained:
Assay in all cases: ELISA; dose-response: host component coated as in the single-dose assay; increasing concentrations of recombinant protein (0–6 µM LipL21, 0–1.5 µM LipL41) in PBS-BSA, 2 h 37°C; KD from non-linear regression, one site-specific binding (GraphPad Prism 7)
[1] = target: collagen IV
[2] = target: elastin (human aorta) (human) (UniProt P15502)
[3] = target: plasma fibronectin (human plasma) (human)
[4] = target: E-cadherin (human recombinant) (human) (UniProt P12830)
[5] = target: collagen type I (rat tail) (rat) (UniProt P02454)
UniProt P02454, sequence (P02454 152-1207, chain 1 of 2): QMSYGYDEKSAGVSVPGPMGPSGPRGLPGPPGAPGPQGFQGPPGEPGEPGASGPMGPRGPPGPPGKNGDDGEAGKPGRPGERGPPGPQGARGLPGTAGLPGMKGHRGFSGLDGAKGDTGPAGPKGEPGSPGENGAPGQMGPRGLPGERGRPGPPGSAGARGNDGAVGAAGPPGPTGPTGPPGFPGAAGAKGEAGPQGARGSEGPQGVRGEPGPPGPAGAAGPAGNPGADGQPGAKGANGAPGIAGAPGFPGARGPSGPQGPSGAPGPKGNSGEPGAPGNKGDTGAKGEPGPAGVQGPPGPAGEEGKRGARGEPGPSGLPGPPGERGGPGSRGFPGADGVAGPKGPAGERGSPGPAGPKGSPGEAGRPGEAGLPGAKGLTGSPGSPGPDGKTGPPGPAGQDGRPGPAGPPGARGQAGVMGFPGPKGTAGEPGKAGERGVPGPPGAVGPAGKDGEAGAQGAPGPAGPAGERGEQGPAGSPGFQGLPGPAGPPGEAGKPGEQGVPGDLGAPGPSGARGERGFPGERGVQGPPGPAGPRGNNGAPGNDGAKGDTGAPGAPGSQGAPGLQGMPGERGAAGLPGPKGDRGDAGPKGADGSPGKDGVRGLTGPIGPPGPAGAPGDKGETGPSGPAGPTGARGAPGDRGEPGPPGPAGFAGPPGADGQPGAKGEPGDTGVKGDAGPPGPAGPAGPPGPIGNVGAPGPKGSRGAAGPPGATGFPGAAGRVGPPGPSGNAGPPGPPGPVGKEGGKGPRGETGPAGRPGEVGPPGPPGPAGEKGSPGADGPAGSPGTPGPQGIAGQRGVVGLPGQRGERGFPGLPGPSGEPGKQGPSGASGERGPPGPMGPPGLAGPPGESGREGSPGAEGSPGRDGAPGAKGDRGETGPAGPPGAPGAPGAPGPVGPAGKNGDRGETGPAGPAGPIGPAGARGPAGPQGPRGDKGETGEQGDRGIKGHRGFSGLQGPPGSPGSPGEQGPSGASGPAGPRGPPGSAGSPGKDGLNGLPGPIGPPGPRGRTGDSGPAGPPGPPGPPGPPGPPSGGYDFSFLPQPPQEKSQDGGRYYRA
UniProt P02454, sequence (P02466 86-1125, chain 2 of 2, further chain): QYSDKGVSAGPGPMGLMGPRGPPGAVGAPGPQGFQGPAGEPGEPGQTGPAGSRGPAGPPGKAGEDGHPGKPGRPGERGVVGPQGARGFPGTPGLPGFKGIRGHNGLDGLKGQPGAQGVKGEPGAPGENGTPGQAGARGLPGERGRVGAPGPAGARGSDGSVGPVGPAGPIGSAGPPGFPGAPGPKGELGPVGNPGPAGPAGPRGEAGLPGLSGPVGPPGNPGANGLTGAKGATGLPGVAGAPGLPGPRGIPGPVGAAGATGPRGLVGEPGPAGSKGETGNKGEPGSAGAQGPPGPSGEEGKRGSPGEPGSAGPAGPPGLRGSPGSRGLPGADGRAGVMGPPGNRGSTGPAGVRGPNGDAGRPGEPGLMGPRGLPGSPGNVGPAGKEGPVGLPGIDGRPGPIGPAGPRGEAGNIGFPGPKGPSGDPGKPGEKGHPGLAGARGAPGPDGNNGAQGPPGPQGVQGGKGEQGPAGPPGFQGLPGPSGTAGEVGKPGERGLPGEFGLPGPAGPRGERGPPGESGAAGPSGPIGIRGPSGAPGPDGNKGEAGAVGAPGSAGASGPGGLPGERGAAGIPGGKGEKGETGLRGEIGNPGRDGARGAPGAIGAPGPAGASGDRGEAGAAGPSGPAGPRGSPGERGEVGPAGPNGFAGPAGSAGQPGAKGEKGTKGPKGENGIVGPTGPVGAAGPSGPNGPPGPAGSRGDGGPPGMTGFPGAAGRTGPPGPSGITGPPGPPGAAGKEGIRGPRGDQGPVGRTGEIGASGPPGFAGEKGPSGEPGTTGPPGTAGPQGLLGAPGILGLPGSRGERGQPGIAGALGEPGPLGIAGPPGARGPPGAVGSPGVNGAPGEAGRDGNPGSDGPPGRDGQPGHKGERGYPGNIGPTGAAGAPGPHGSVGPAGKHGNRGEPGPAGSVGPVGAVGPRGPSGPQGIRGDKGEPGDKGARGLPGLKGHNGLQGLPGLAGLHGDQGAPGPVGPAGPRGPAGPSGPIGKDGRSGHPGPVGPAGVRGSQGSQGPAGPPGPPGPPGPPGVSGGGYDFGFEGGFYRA

[6] = target: laminin (human placenta) (human)
[7] = target: fibrinogen (human plasma) (human) (UniProt P02671)
UniProt P02671, sequence (P02671 36-866, chain 1 of 3): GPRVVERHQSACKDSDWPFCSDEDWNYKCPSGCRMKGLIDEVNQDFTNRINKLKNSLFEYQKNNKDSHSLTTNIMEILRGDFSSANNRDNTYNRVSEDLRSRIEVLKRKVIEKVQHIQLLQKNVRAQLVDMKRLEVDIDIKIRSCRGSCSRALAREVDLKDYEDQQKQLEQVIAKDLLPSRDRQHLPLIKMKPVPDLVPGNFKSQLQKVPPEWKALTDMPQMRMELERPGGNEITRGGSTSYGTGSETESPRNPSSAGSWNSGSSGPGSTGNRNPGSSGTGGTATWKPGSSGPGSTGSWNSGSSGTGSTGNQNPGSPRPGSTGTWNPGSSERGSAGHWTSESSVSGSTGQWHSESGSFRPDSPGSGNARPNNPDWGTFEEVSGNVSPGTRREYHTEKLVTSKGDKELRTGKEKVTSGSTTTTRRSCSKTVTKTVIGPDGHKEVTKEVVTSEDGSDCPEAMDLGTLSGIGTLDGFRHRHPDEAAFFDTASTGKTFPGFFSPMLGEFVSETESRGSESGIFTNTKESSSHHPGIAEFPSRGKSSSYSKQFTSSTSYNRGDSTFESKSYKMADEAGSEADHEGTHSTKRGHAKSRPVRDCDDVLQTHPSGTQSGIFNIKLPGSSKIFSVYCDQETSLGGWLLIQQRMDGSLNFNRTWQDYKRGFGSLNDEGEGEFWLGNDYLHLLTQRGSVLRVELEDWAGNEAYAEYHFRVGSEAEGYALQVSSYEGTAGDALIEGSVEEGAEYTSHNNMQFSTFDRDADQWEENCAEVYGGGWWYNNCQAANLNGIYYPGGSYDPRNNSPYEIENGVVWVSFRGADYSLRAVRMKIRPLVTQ
UniProt P02671, sequence (P02675 45-491, chain 2 of 3, further chain): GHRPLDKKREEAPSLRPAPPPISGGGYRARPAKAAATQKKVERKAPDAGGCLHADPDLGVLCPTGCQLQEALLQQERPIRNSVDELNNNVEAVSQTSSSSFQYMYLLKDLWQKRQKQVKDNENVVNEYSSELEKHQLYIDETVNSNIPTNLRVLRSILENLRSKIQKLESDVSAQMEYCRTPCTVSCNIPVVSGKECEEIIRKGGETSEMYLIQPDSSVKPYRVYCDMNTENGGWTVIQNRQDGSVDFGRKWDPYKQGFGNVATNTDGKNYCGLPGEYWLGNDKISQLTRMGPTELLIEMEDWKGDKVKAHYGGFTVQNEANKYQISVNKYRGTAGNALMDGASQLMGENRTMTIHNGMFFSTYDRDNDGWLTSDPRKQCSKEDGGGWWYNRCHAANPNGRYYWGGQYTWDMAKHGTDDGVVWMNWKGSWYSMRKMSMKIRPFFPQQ
UniProt P02671, sequence (P02679 27-453, chain 3 of 3, further chain): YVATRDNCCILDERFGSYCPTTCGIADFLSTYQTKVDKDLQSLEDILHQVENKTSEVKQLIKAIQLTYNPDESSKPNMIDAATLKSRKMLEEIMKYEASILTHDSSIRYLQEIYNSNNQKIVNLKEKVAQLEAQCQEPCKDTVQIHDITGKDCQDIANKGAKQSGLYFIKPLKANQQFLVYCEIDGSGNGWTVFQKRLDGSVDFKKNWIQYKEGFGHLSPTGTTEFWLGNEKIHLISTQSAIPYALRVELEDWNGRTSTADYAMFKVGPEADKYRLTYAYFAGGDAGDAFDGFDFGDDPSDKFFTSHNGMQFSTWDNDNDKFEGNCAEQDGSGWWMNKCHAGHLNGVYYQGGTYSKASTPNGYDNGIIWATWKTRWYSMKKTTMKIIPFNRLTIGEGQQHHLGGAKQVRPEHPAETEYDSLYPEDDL

[8] = target: vitronectin (human plasma) (human)
[9] = target: plasminogen (human plasma) (human)

UniProt P15502, sequence (P15502 27-786): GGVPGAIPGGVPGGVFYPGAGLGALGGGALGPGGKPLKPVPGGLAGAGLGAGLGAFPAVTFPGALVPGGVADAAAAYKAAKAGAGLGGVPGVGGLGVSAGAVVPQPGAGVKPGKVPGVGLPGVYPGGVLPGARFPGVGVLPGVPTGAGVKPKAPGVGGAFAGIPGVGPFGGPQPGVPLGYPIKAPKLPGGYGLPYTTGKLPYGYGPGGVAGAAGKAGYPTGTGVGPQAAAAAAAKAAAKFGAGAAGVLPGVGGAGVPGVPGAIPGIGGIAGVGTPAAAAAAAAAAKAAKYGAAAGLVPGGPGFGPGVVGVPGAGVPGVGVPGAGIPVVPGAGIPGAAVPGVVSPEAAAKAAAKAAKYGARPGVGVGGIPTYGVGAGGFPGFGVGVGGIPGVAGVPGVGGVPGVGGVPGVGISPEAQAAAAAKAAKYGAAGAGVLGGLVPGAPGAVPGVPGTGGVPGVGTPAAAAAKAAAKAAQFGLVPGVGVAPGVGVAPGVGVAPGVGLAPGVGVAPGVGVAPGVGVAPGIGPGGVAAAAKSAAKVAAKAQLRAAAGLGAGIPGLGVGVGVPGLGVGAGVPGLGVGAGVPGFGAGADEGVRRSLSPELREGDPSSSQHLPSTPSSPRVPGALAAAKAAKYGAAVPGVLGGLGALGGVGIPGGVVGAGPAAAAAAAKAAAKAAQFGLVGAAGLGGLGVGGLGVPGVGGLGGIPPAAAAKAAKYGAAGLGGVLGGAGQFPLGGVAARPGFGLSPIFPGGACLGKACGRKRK

Row | Substance | Kd [1] | Kd [2] | Kd [3] | Kd [4] | Kd [5] | Kd [6] | Kd [7] | Kd [8] | Kd [9]
1 | recombinant LipL21 (LIC10011) (natural protein) | 0.0539 µM | 0.171 µM | 2.54 µM | 0.147 µM | 6.14 µM | 0.287 µM | 1.12 µM | 0.424 µM | 0.0138 µM
2 | recombinant LipL41 (LIC12966) (natural protein) | 0.537 µM | 2.72 µM |  | 1.38 µM |  | 0.312 µM |  |  | 
